B1: LOXL2 (parent)
chain: HISSCKLGPQVSLDPMKNVTCENG
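Further: lentivirally expressed fusions sorted by FACS into six bins by GFP to DsRed ratio, PSI derived from sequencing read proportions per bin multiplied by bin number.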

Variants of: B1
Test: protein stability index of a GFP-peptide fusion (GPS, HEK-293T) (PSI 1-6); higher = more stable
Conditions: c terminus: a fixed tail appended
Work on HIPSCKLGPQVSLDPMKNVTCENG yielded a protein stability index of 3.99.
Variant HIDSCKLGPQVSLDPMKNVTCENG has a protein stability index of 4.39.
HIMSCKLGPQVSLDPMKNVTCENG gave a protein stability index of 3.3.
For HIHSCKLGPQVSLDPMKNVTCENG, the protein stability index was 3.51.
Work on HIVSCKLGPQVSLDPMKNVTCENG yielded a protein stability index of 3.12.
HIESCKLGPQVSLDPMKNVTCENG showed a protein stability index of 4.24.
HIKSCKLGPQVSLDPMKNVTCENG gave a protein stability index of 4.01.
Work on HILSCKLGPQVSLDPMKNVTCENG yielded a protein stability index of 3.19.
For HIGSCKLGPQVSLDPMKNVTCENG, the protein stability index was 4.2.
Variant HIRSCKLGPQVSLDPMKNVTCENG has a protein stability index of 3.48.
With HIASCKLGPQVSLDPMKNVTCENG the protein stability index was 3.69.
For HIYSCKLGPQVSLDPMKNVTCENG, the protein stability index was 2.62.
HIFSCKLGPQVSLDPMKNVTCENG showed a protein stability index of 2.94.
HIISCKLGPQVSLDPMKNVTCENG gave a protein stability index of 3.39.
Work on HIQSCKLGPQVSLDPMKNVTCENG yielded a protein stability index of 3.92.
Variant HITSCKLGPQVSLDPMKNVTCENG has a protein stability index of 3.59.
With HINSCKLGPQVSLDPMKNVTCENG the protein stability index was 4.24.
In the case of HICSCKLGPQVSLDPMKNVTCENG, the protein stability index is reported as 2.78.
For HIWSCKLGPQVSLDPMKNVTCENG, the protein stability index was 3.14.
For HISSCALGPQVSLDPMKNVTCENG, the protein stability index was 3.96.
HISSCGLGPQVSLDPMKNVTCENG showed a protein stability index of 3.97.
In the case of HISSCLLGPQVSLDPMKNVTCENG, the protein stability index is reported as 4.22.
HISSCCLGPQVSLDPMKNVTCENG showed a protein stability index of 3.73.
Work on HISSCNLGPQVSLDPMKNVTCENG yielded a protein stability index of 4.32.
Work on HISSCMLGPQVSLDPMKNVTCENG yielded a protein stability index of 4.15.
For HISSCHLGPQVSLDPMKNVTCENG, the protein stability index was 4.
For HISSCDLGPQVSLDPMKNVTCENG, the protein stability index was 4.9.
HISSCELGPQVSLDPMKNVTCENG gave a protein stability index of 4.35.
Variant HISSCFLGPQVSLDPMKNVTCENG has a protein stability index of 2.98.
For HISSCILGPQVSLDPMKNVTCENG, the protein stability index was 3.57.
For QISSCKLGPQVSLDPMKNVTCENG, the protein stability index was 3.95.
Work on VISSCKLGPQVSLDPMKNVTCENG yielded a protein stability index of 3.72.
YISSCKLGPQVSLDPMKNVTCENG gave a protein stability index of 2.46.
RISSCKLGPQVSLDPMKNVTCENG gave a protein stability index of 3.95.
In the case of WISSCKLGPQVSLDPMKNVTCENG, the protein stability index is reported as 3.42.
In the case of SISSCKLGPQVSLDPMKNVTCENG, the protein stability index is reported as 4.14.
Variant TISSCKLGPQVSLDPMKNVTCENG has a protein stability index of 4.07.
Work on HISSLKLGPQVSLDPMKNVTCENG yielded a protein stability index of 4.32.
For HISSDKLGPQVSLDPMKNVTCENG, the protein stability index was 4.77.
HISSGKLGPQVSLDPMKNVTCENG showed a protein stability index of 4.17.
In the case of HISSTKLGPQVSLDPMKNVTCENG, the protein stability index is reported as 4.54.
HISSQKLGPQVSLDPMKNVTCENG gave a protein stability index of 4.49.
With HISSIKLGPQVSLDPMKNVTCENG the protein stability index was 3.87.
Work on HISSAKLGPQVSLDPMKNVTCENG yielded a protein stability index of 4.39.
HISSRKLGPQVSLDPMKNVTCENG showed a protein stability index of 4.1.
Variant HISSYKLGPQVSLDPMKNVTCENG has a protein stability index of 4.
HISSWKLGPQVSLDPMKNVTCENG showed a protein stability index of 3.
Work on HISSPKLGPQVSLDPMKNVTCENG yielded a protein stability index of 4.01.
With HISSKKLGPQVSLDPMKNVTCENG the protein stability index was 4.53.
HISSVKLGPQVSLDPMKNVTCENG showed a protein stability index of 4.31.
For HISSFKLGPQVSLDPMKNVTCENG, the protein stability index was 3.83.
Work on HISSEKLGPQVSLDPMKNVTCENG yielded a protein stability index of 4.95.
HISSSKLGPQVSLDPMKNVTCENG showed a protein stability index of 4.66.
With HISSHKLGPQVSLDPMKNVTCENG the protein stability index was 4.37.
In the case of HISSMKLGPQVSLDPMKNVTCENG, the protein stability index is reported as 4.2.
HISSNKLGPQVSLDPMKNVTCENG gave a protein stability index of 3.29.
HPSSCKLGPQVSLDPMKNVTCENG gave a protein stability index of 3.76.
For HQSSCKLGPQVSLDPMKNVTCENG, the protein stability index was 4.25.
For HTSSCKLGPQVSLDPMKNVTCENG, the protein stability index was 4.54.
HGSSCKLGPQVSLDPMKNVTCENG showed a protein stability index of 4.53.
For HRSSCKLGPQVSLDPMKNVTCENG, the protein stability index was 4.11.
For HASSCKLGPQVSLDPMKNVTCENG, the protein stability index was 4.35.
Variant HMSSCKLGPQVSLDPMKNVTCENG has a protein stability index of 4.41.
Work on HKSSCKLGPQVSLDPMKNVTCENG yielded a protein stability index of 3.4.
With HFSSCKLGPQVSLDPMKNVTCENG the protein stability index was 3.58.
HVSSCKLGPQVSLDPMKNVTCENG gave a protein stability index of 4.21.
With HWSSCKLGPQVSLDPMKNVTCENG the protein stability index was 3.31.
Variant HNSSCKLGPQVSLDPMKNVTCENG has a protein stability index of 3.76.
Variant HYSSCKLGPQVSLDPMKNVTCENG has a protein stability index of 3.61.
With HCSSCKLGPQVSLDPMKNVTCENG the protein stability index was 3.44.
In the case of HESSCKLGPQVSLDPMKNVTCENG, the protein stability index is reported as 4.48.
Variant HHSSCKLGPQVSLDPMKNVTCENG has a protein stability index of 3.53.
In the case of HSSSCKLGPQVSLDPMKNVTCENG, the protein stability index is reported as 4.34.
HDSSCKLGPQVSLDPMKNVTCENG gave a protein stability index of 4.58.
In the case of HLSSCKLGPQVSLDPMKNVTCENG, the protein stability index is reported as 4.24.
In the case of HISDCKLGPQVSLDPMKNVTCENG, the protein stability index is reported as 3.61.
With HISYCKLGPQVSLDPMKNVTCENG the protein stability index was 3.44.
Variant HISTCKLGPQVSLDPMKNVTCENG has a protein stability index of 3.65.
Variant HISGCKLGPQVSLDPMKNVTCENG has a protein stability index of 3.79.
HISLCKLGPQVSLDPMKNVTCENG showed a protein stability index of 3.6.
HISKCKLGPQVSLDPMKNVTCENG showed a protein stability index of 3.96.
With HISICKLGPQVSLDPMKNVTCENG the protein stability index was 3.02.
HISPCKLGPQVSLDPMKNVTCENG showed a protein stability index of 4.22.
Work on HISWCKLGPQVSLDPMKNVTCENG yielded a protein stability index of 2.32.
Variant HISFCKLGPQVSLDPMKNVTCENG has a protein stability index of 3.34.
With HISVCKLGPQVSLDPMKNVTCENG the protein stability index was 3.91.
Work on HISHCKLGPQVSLDPMKNVTCENG yielded a protein stability index of 3.98.
Work on HISECKLGPQVSLDPMKNVTCENG yielded a protein stability index of 4.37.
With HISNCKLGPQVSLDPMKNVTCENG the protein stability index was 3.47.
HISACKLGPQVSLDPMKNVTCENG showed a protein stability index of 3.65.
With HISRCKLGPQVSLDPMKNVTCENG the protein stability index was 3.52.
HISQCKLGPQVSLDPMKNVTCENG gave a protein stability index of 3.69.
With HISCCKLGPQVSLDPMKNVTCENG the protein stability index was 3.78.
Work on HISMCKLGPQVSLDPMKNVTCENG yielded a protein stability index of 3.94.

— the supplement of paper PMC10567573
